Assay results: the supplement of paper PMC11502859
Where “and” joins values, the source holds several entries; their conditions need not be identical. Identical values can stand only once.

Tested on: HEK293T
Assay: median enrichment of reporter reads in eGFP-reduced (low/intermediate) vs eGFP-high sorted cells (eGFP-extension fusion abundance) (ratio); higher = stronger loss of eGFP-fusion protein abundance (more destabilising extension)
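Also: lentiviral eGFP-IRES-mCherry reporter pool sorted by FACS 96 h post-transduction, gated on mCherry-high cells, Illumina read counts normalized per million, median across four biological replicates.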

Sequence of EIF2AK2 (chain, as listed by the source): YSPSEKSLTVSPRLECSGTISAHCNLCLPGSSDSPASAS

In order of rising median enrichment:
1. EPKEVPGTVSDLERSQKENNIIK [CELA2A]  0
2. EDTPSPDSTGNRSSPDSPPRRASPRPCTGSEASVTLPLCSPVP [KDM2A]  0.106
3. ELQEAN [GZMB]  0.208
4. DDDDDDDDD [Asp09]  0.213
5. ELSF [ADHFE1]  0.232
6. EFK [BBS9]  0.267
7. EPGNPYSFSNTGSFI [ADAM30]  0.267
8. EQPGTAFSFPAEYC [RBM34]  0.275
9. EHH [SPRR2G]  0.297
10. EKHLKC [FAN1]  0.297
11. DDDDDDDD [Asp08]  0.299
12. EAKSRCTQHVLGMQPQEVPDLKQPDSYLA [GREM1]  0.305
13. EGN [CYTL1]  0.312
14. EVDV [PRKCB]  0.313
15. EVNV [CLEC2B]  0.328
16. DDDDDDD [Asp07]  0.338
17. EHQETLE [KLHL14]  0.343
18. ETSSGQNRRVPNYVLKP [SLC10A2]  0.355
19. EYKLS [UBA6]  0.363
20. GAAPQAGVEPDLGTKD [ZNF688]  0.378
21. DDDDDD [Asp06]  0.38
22. EEEEEEEE [Glu08]  0.411
23. EEEEEEEEEE [Glu10]  0.42
24. DDDDDDDDDD [Asp10]  0.433
25. EEEEEEEEE [Glu09]  0.433
26. ETSGFSSQTF [ELP5]  0.462
27. EAWLPPESCSLKLGF [POU2AF1]  0.528
28. EFLSHSPTSTTTGQLSPFPTL [RNASE13]  0.565
29. EHVGSVPTQCFGKCKI [DNAH5]  0.681
30. ECLSIKSGFAP [NPL]  0.687
31. EETTHPEPQHCLTLGTRDPTEMFWRAGGFPQSPPSSSPSNQSCV [SERPINA6]  0.705
32. EEESLPPPKYWAALSLPRDHPSLPAMCTIMTNLFGYAVVLPFWGLGSTRRLCLQCRNLFSLCVAGARAQGPCLCIFNKYSFSK [GPR108]  0.994
33. EYPRFKKRT [PPP2R1B]  1.16
34. EEEEEEE [Glu07]  1.23
35. EKSYMAKRSRSKFRSHSQGNQYLPI [SNX24]  1.3
36. EEEEE [Glu05]  1.41
37. ELPGLGGLSGIAMLVAREKKSTANKTTQTKPSTA [FOXA1]  1.47
38. ERSPNLQVQGRYIHI [MARK1]  1.47
39. EKPSRRKNSLSQFSKEPRILQRMCEDFPVLDGE [SAMD7]  1.53
40. EEEEEE [Glu06]  1.59
41. EGPPCICT [PDK2]  1.79
42. EIF2AK2  2.12
43. DPTPLWGSGTLHCTGSLHTGRGTCAPTSETCRSPQLTCPTGAQHCTQLVGRTRACLRELPAGVMQGGGEVQGRGAGLSCHQHF [MAP3K11]  2.41
44. ETGPTHHSPSPSISTWCLVPVHSVNKKP [KLK11]  2.42
45. EPWPWAPPQGRASRNGDSPGTACPQRGGGHSWAPESLRVLPTEPLGWEGAGGLARTPTFASSSSCPAGRAPPCMMGKAILPLP [SCN1B]  2.5
46. ELQQKNLHCYIRYRYKMQKKHQEFCLLFYFIFKLQEVFSSWDNLVLLLSIICQFLCILNKINIELK [WDR49]  2.64
47. EFILMKENVTKEMHEM [MYH4]  2.79
48. EFILERNSTNVKNVTKLLSISLTLLHIRKFILEKNPTDVKNVAKPLSTPLNLLHIRDFILERNPTDVNNVVKLFTYPHTLLHI [ZNF626]  2.95
49. ELSASARRASLPNQPWVPGSRLEPAINSLFLAPGSNGGPHLRTSGEAIAPSGEVMHFLSTYCLPGPRAHGEETWAHPCRKRDN [TSSK6]  3.11
50. EPVKNHAKAKTRSAERAHGSSRLVGDQAHLICTNCSTC [OCSTAMP]  3.35
51. ELLGQRLKPQDPCCPSRSFFLESQGKPFRAAPPSGQKLK [ALG1]  3.82
52. FGHSRTGERQLYFSLGQLQRVGQALMGSDCQSDAVGPRQRKAGRRGARTFSPHCPFPFSGEHRRLLTPTSCEAVAYGVQRSWS [C16orf58]  4.42
53. DQPHSAQEAASGVGAQRGTAASSTAGCGAAGPGPSAWAAEYIFYLSETSIFLGSNPTCHHVDISSYLTMLSLLGAVLVGPGPC [BAP1]  4.59
54. FLGTHSHAHCRSINSNPHFRPKIMRPHLVSTFPRPCSKPNPFLPSGSQNLLSPTATTVLPDFSHSNHSRPAMGNRPSPSVLVK [RNF39]  4.59
55. EATKRPGFSSCCHQLALWPRARCLPFMFPHLQSELVVPDDLRSHDLLTCPMILYFVGRSIKQLLLLLCANHSCNFCSAYLPLF [ADAMTSL1]  5
56. ERAPTGRWGRRG [Degron KLHDC3]  5.05
57. EKLVLCSG [ZDBF2]  5.06
58. FFF [Phe03]  5.17
59. EFFLELKHPRMPLHVFHSPHLQTSLLFLTRPESKLPSLGNSGEGVSCTTYHTPSHPVSDFGMDSGKLGPSLNRVMYLNVCYFQ [HSPA1L]  5.31
60. EFIFKRFSECAQNTWLK [TRMT10C]  5.59
61. DNPHPHCFWGSLSHLSHPVSCLCLSWCLSGLLSVSFCLSVSLPTPAPSFQCSGWLSLPFSPSLSALGSVSTAGPKVKVLPLPE [CCDC97]  5.65
62. EVGVRSPYSACCPGCAAQLDSASQHLPPRSFLLFIPIFTPKTSLSLFTPPKPLSHAGPLKPQLPTILREHPLPSLPFPALKPA [GSTM2]  5.73
63. DISSYLTMLSLLGAVLVGPGPCIMPRSQLQGPSWGPGWALGSGPCCSSPSHQPVPVVRKPGLLSSFLLGECQTQGPSTGLGWE [BAP1]  5.92
64. ESHMRRTACSDQRAQRPEDKSGGDSMGMGVGCLRERTHGLGRGERCMGITFARAAYLKVTVSSGTAGDRYLLLQEINYPENST [LEXM]  5.93
65. EGLATPVKAVLLLDTISSSGRAVERESNFLLEEYLCLLTLN [CDC14A]  6.01
66. EPSPPLLCVGTGGPWPVPGHSGQGPRDISTRSWRAVRIHSACPALAGQRQGRTFGKTKTVGDRVCVYLCVSVSVCERELVSLK [TCF15]  6.39
67. EVGQPLMSWFLQLSFPLGCIEGFS [RAG1]  6.39
68. ESVAFLLFPH [NKAIN2]  6.56
69. FLELKHPRMPLHVFHSPHLQTSLLFLTRPESKLPSLGNSGEGVSCTTYHTPSHPVSDFGMDSGKLGPSLNRVMYLNVCYFQPP [HSPA1L]  6.57
70. EDPGTQRLCPPRPQSVPITLTVLHTVHAPLLAFFREKENFTTGSH [SERTAD2]  6.58
71. EKYHLPYAARDLQTFFLPFW [SPAG11A]  6.64
72. EESATNYNFTIKTGKRPGMVAHACNHSTLGG [OR6C6]  6.68
73. EEITRWHQPRALARYGEGTWGPHLPPGLFREDPTVTPPSAVGAWRWAAGLNPPWGAPFLLPICVYIHK [MEF2B]  6.73
74. ELLTAFPKALLQKRSMSVIITWLSNLFHSMEPWRRKTLSYFVTQPGIGLFGPTRFPSPEELPRPGDQC [GRM7]  6.76
75. FLQRTALIFRFKRLPTR [Degron UPS]  6.83
76. ESSTLLLQWVQKLLRPVVK [MYLK3]  7
77. FFFFFFFFFF [Phe10]  7.03
78. ENSSSTMDFRLLVAVLT [ELF2]  7.29
79. EGLPFPKPRVMSNCNQAQNQRPGCEIHTSLELVVSSWPQQLFPVLTG [PHF11]  7.37
80. FFFFF [Phe05]  7.46
81. EGGALCLCLPV [CTSE]  7.51
82. FFFFFFF [Phe07]  7.66
83. EGTLQSLFHIFKPH [HMCN1]  7.78
84. ETLNILSLIFN [POLK]  8.07
85. GAFFLEEESENFQTTAADSALMGCWLIGVLSMGDWNFFFV [ZNHIT6]  8.19
86. FILERNSTNVKNVTKLLSISLTLLHIRKFILEKNPTDVKNVAKPLSTPLNLLHIRDFILERNPTDVNNVVKLFTYPHTLLHIR [ZNF626]  8.24
87. EEEE [Glu04]  8.36
88. FPPPPSSGSPRSNVPPATFPLWPPAELICLSHRSWCLPLHRSLNAATLAGSRWKLVEGPCQVTAMLSLSRHGPGSFRHIQILH [S100A7A]  8.52
89. EIPQHGSLMFICCLSFLLSFPVCFQFSTSSAHPVLCPFVCVRTI [PCLO]  8.91
90. ECDKVQPSDLIIHKIIYT [ZNF679]  8.95
91. FFFFFF [Phe06]  9.02
92. EMCNLISLFHHNHDRW [C9orf72]  9.03
93. ELLPLSTRSSWQRELRTAAALSVRWRPTSRFCPALCG [ACVR1B]  9.04
94. EEE [Glu03]  9.28
95. EVKGSIQVLHLVLPCLLSDHSDGLMWLLMWNCRRVQRRVCNKAIGKHTGAFPSPSGPRPLSKLDNFLLSCLFPALKLKQEIFW [HS3ST3B1]  9.3
96. FFFF [Phe04]  9.4
97. FFFFFFFF [Phe08]  9.45
98. FFFFFFFFF [Phe09]  9.48
99. EIKCTRSQ [NLRC4]  9.53
100. EKTVCKRSGVQEITSFDRSMYRKFKFCLRLHKLGAFLRCFSCSNLFVS [SRSF3]  10
101. EMALSPPRSWGQ [Degron APPBP2]  10.9
102. EVHTVCHRMAHVIAHFCVDMVLV [ATP5IF1]  11
103. ESFHMIFCHIKHIVCLTVYRILKCSGCKTRDYLYAQNSYIFINEFNILFILVRAGQPFWVTQLIYQLIQIIEYIHNQADTS [PLS1]  11.2
104. EILGSKYTSLFKNSNLI [OR10G4]  11.8
105. EVQPACSCIQKPATTQPISACAYPDKKTKIPLGKTQALTLLFKWPLQKV [TPD52L1]  13
106. ESPLFLPTLQGPHSPYPSVQCTREETLCL [IDH3B]  13.1
107. DLASKKSCSVPCVLSFKGIFRINSDLEDSSVLQRLAFIFIVIMEMLSFILSYIRKKGVMQLISISLGNALVLFSSFLVPVTCL [CREB5]  14
108. ECPLFLFLLSPFSSLRSIGPLLSIFITRCFPLKHAHATVTKTNNYHFPNFIQNHFSVFLFPTPPTTFNDEIP [PHYHIPL]  15.5
109. ECPARAAAPATLPRVAFRAAPRVGNLGARGGRLGVPFFFSFSFAFRLFYFFLK  15.7
110. ESYNHMQLWDRSLVLGTIHTHTPSLCLWLTSQKTLVNDHSRILTRIHVTDLTQ [CPAMD8]  15.9
111. GACFAVGHPAKQANMETTCNLARLYLV [DDX3X]  17.6
112. EILSLAAICKGS [TET2]  18.6

With FANCD2 the median enrichment was 5.79 and 4.35.
